Tests used:
[1] = biological target: myelin basic protein (MBP)
[2] = biological target: SF2/ASF (wild type) (Homo sapiens (Human)) (UniProt Q07955)

Km for phosphorylation of MBP [1]: 5.8 µM
Vmax for phosphorylation of MBP [1]: 0.02 pmol per min
Km for phosphorylation of SF2/ASF [2]: 0.07 µM
Vmax for phosphorylation of SF2/ASF [2]: 0.45 pmol per min
Substance: SR protein-specific kinase, SRPK1 (enzyme)

From patent US5559019
